Reference: article PMC5309844, “PDI regulates seizure activity via NMDA receptor redox in rats” (Scientific Reports, 2017)

Experiments:
[1] = molecular target: T1, NMDA receptor NR1 subunit (rat (endogenous in hippocampus), UniProt P35439 19-938); assay: co-IP; rat hippocampal tissue lysed in RIPA buffer; equal amounts of total protein precipitated with the appropriate primary antibodies and protein G sepharose at 4 °C overnight; Western blot; normal, chronic epileptic, and control siRNA- or PDI siRNA-infused epileptic animals; conditions: partners not purified
T1 construct: NR1 subunit of the N-methyl-D-aspartate receptor, rat, endogenous in the hippocampus; source: endogenous, rat hippocampal tissue lysate (RIPA buffer)

[2] = molecular target: T2, NMDA receptor NR2A subunit (rat (endogenous in hippocampus), UniProt Q00959 23-1464); assay: as above; conditions: partners not purified
T2 construct: NR2A subunit of the N-methyl-D-aspartate receptor, rat, endogenous in the hippocampus; source: endogenous, rat hippocampal tissue lysate (RIPA buffer)
T2 sequence (Q00959 23-1464): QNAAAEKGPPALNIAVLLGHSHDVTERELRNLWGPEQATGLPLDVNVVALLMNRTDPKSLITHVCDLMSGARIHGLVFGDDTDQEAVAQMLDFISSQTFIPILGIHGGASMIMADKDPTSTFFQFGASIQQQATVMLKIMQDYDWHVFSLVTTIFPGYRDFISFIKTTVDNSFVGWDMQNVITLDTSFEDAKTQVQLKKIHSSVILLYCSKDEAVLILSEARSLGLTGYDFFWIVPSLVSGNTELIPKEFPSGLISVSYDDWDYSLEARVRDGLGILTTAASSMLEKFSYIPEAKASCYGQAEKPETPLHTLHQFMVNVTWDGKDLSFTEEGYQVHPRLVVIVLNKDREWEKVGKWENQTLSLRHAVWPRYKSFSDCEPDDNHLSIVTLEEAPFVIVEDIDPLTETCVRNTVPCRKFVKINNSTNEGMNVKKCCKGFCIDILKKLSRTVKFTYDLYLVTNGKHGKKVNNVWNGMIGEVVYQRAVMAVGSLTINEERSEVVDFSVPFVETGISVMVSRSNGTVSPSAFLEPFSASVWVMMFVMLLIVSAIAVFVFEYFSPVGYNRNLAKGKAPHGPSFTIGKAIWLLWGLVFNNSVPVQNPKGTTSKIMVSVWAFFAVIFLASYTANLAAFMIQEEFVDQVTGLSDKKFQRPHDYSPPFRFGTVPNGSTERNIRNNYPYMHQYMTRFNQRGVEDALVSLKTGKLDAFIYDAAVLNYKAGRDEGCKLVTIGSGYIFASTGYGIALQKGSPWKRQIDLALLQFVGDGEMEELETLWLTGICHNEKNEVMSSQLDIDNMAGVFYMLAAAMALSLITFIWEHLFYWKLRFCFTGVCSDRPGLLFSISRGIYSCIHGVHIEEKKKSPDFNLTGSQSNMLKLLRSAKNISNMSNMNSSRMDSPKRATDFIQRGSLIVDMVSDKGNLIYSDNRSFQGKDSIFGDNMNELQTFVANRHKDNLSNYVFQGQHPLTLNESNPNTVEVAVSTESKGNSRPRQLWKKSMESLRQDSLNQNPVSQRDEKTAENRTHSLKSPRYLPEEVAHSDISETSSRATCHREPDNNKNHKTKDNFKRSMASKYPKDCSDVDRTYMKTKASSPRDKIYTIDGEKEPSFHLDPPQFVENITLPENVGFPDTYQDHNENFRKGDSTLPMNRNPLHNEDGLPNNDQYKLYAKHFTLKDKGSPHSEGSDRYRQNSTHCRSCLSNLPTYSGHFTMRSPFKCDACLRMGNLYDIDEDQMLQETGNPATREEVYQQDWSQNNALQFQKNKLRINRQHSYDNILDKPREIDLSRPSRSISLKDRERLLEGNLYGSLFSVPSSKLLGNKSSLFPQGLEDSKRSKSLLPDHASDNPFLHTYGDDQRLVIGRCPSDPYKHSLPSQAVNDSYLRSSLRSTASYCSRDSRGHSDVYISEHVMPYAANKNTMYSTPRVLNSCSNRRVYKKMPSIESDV

B1: Protein disulfide isomerase (enzyme, rat (endogenous in hippocampus), UniProt P04785 20-509, looked up)
chain: DALEEEDNVLVLKKSNFAEALAAHNYLLVEFYAPWCGHCKALAPEYAKAAAKLKAEGSEIRLAKVDATEESDLAQQYGVRGYPTIKFFKNGDTASPKEYTAGREADDIVNWLKKRTGPAATTLSDTAAAESLVDSSEVTVIGFFKDAGSDSAKQFLLAAEAVDDIPFGITSNSDVFSKYQLDKDGVVLFKKFDEGRNNFEGEITKEKLLDFIKHNQLPLVIEFTEQTAPKIFGGEIKTHILLFLPKSVSDYDGKLSNFKKAAEGFKGKILFIFIDSDHTDNQRILEFFGLKKEECPAVRLITLEEEMTKYKPESDELTAEKITQFCHHFLEGKIKPHLMSQELPEDWDKQPVKVLVGKNFEEVAFDEKKNVFVEFYAPWCGHCKQLAPIWDKLGETYKDHENIVIAKMDSTANEVEAVKVHSFPTLKFFPASADRTVIDYNGERTLDGFKKFLESGGQDGAGDNDDLDLEEALEPDMEEDDDQKAVKDEL
notes: Protein disulfide isomerase (PDI), rat, endogenous in the hippocampus of Sprague-Dawley rats; also called PDI; source: endogenous, rat hippocampal tissue lysate (RIPA buffer)
fold of co-precipitation in epileptic against normal animals [1]: ~2.4 fold
fold of co-precipitation in epileptic against normal animals [2]: ~2.4 fold
